Target: α subunit of the Sinapis alba plastid-encoded RNA polymerase (SaPEP) (Sinapis alba) (UniProt Q9XQN8)
Assay: cryo-EM structure

Work on “α subunit of the Sinapis alba plastid-encoded RNA polymerase (SaPEP) (from UniProt Q9XQN8 1-327) (natural protein)” yielded a stoichiometry N of 2.

From publication doi:10.1101/2024.10.25.620210
